Substitutions are numbered along the chain they refer to. Each block holds one molecule with its values, some of them ahead of it.
What was measured:
[1] = biological target: chicken ZP1, full length, 6His-tagged (chicken); assay: non-reducing against reducing SDS-PAGE with immunoblot; conditioned medium of transfected HEK293 cells, anti-5His immunoblot; shows only covalent (disulphide-bonded) oligomers
[2] = biological target: chicken ZP1 ZP-N1 domain, recombinant, wild type (chicken); assay: SEC; IMAC-purified protein, analytical SEC at 4 °C in 20 mM Na-HEPES pH 7.8, 150 mM NaCl (HiLoad 26/600 Superdex 75 pg or Superdex 75 Increase 10/300 GL), fractions on Coomassie-stained SDS-PAGE
[3] = biological target: chicken ZP1 ZP-N1 domain, recombinant, wild type (chicken); assay: non-reducing against reducing SDS-PAGE with immunoblot; conditioned medium of transfected HEK293 cells, anti-5His immunoblot; shows only covalent (disulphide-bonded) oligomers
[4] = biological target: chicken ZP4 ZP-N1 domain, 6His-tagged (chicken); assay: SEC; IMAC-purified protein, analytical SEC at 4 °C in 20 mM Na-HEPES pH 7.8, 150 mM NaCl (HiLoad 26/600 Superdex 75 pg or Superdex 75 Increase 10/300 GL), fractions on Coomassie-stained SDS-PAGE
[5] = biological target: ~21 kDa N-terminal fragment of native chicken ZP1 (chicken); assay: non-reducing against reducing SDS-PAGE with immunoblot; SEC fractions (Sephacryl S-300 HR) of chicken egg coat solubilised by sperm protease, anti-cZP1 N-terminal fragment polyclonal; bands confirmed by MALDI-MS/MS
[6] = biological target: the molecule itself; assay: non-reducing against reducing SDS-PAGE with immunoblot; conditioned medium of transfected HEK293 cells, anti-5His immunoblot; shows only covalent (disulphide-bonded) oligomers
[7] = biological target: the molecule itself; assay: SEC; IMAC-purified protein, analytical SEC at 4 °C in 20 mM Na-HEPES pH 7.8, 150 mM NaCl (HiLoad 26/600 Superdex 75 pg or Superdex 75 Increase 10/300 GL), fractions on Coomassie-stained SDS-PAGE

- stoichiometry N [1]: 2
Molecule: chicken ZP1, full length, 6His-tagged (natural protein)

- stoichiometry N [2]: 2
- stoichiometry N [3]: 2
Molecule: chicken ZP1 ZP-N1 domain, recombinant, wild type (domain or fragment)

- stoichiometry N [4]: 2
Molecule: chicken ZP4 ZP-N1 domain, 6His-tagged (from UniProt A0A8V0ZLW5 1-148) (domain or fragment)

- stoichiometry N [5]: 2
Molecule: ~21 kDa N-terminal fragment of native chicken ZP1 (domain or fragment)

B1: human ZP1 ZP-N1 domain, H102 mutant (domain or fragment)
chain: RWLQPDPGLPGLRHSYDCGIKGMQLLVFPRPGQTLRFKVVDEFGNRFDVNNCSICYHWVTSRPQEPAVFSADYRGCAVLEKDGRFHLRVFMEAVLPNGRVDVAQDATLICPKPDPSRTLDSQLA
- stoichiometry N [6]: 2

B2: human ZP1 ZP-N1 domain, H82 mutant (domain or fragment)
chain: B1 chain with H57A, A77H
- stoichiometry N [6]: 2

B3: human ZP1 ZP-N1 domain, His-tagged, wild type (domain or fragment, UniProt P60852 26-149, looked up)
chain: B1 chain with A77H
notes: signal peptide in the construct; human ZP1 ZP-N1 domain, M1-A149; also called hZP1-N1; hZP1_(M1-A149); source: HEK293T, transiently transfected; conditioned medium, and purified (IMAC, SEC); not shown: His, C-terminal, kept
- stoichiometry N [6]: 2

B4: mouse ZP1 ZP-N1 domain, 6His-tagged, wild type (domain or fragment, UniProt Q62005 21-141, looked up)
chain: QRLHLEPGFEYSYDCGVRGMQLLVFPRPNQTVQFKVLDEFGNRFEVNNCSICYHWVTSEAQEHTVFSADYKGCHVLEKDGRFHLRVFIQAVLPNGRVDIAQDVTLICPKPDHTVTPDPYLA
notes: signal peptide in the construct; mouse ZP1 ZP-N1 domain, M1-A141, in pHLsec3; Heterogeneous glycosylation at N49 and N68 gives two bands on SDS-PAGE; also called mZP1-N1; mZP1-N1_(M1-A141); source: HEK293, transiently transfected; conditioned medium, and purified (IMAC, SEC); not shown: 6His, C-terminal, kept
- stoichiometry N [7]: 2

B5: human ZP1, wild type, 6His-tagged (natural protein, UniProt P60852 26-553, looked up)
chain: RWLQPDPGLPGLRHSYDCGIKGMQLLVFPRPGQTLRFKVVDEFGNRFDVNNCSICYHWVTSRPQEPAVFSADYRGCHVLEKDGRFHLRVFMEAVLPNGRVDVAQDATLICPKPDPSRTLDSQLAPPAMFSVSTPQTLSFLPTSGHTSQGSGHAFPSPLDPGHSSVHPTPALPSPGPGPTLATLAQPHWGTLEHWDVNKRDYIGTHLSQEQCQVASGHLPCIVRRTSKEACQQAGCCYDNTREVPCYYGNTATVQCFRDGYFVLVVSQEMALTHRITLANIHLAYAPTSCSPTQHTEAFVVFYFPLTHCGTTMQVAGDQLIYENWLVSGIHIQKGPQGSITRDSTFQLHVRCVFNASDFLPIQASIFPPPSPAPMTQPGPLRLELRIAKDETFSSYYGEDDYPIVRLLREPVHVEVRLLQRTDPNLVLLLHQCWGAPSANPFQQPQWPILSDGCPFKGDSYRTQMVALDGATPFQSHYQRFTVATFALLDSGSQRALRGLVYLFCSTSACHTSGLETCSTACSTGTTRQ
notes: human zona pellucida glycoprotein 1 (hZP1), wild type, synthetic cDNA in pHLsec3; the secreted form in the medium was analysed; also called hZP1; full-length hZP1; source: HEK293T, transiently transfected, secreted into the conditioned medium
- stoichiometry N [6]: 2

Reference: publication PMC6626044, “Molecular basis of egg coat cross-linking sheds light on ZP1-associated female infertility” (Nature Communications, 2019)
